# Laboratory results: EP2330125A2
# Key:
# [1] = target: neuropeptide Y2 receptor (UniProt P49146); test: [125I]-human PYY displacement, SK-N-BE membranes
# [2] = target: CGRP receptor (Homo sapiens (Human)) (UniProt Q16602); test: 125I-hCGRP displacement, SK-N-MC membranes
# [3] = target: calcitonin receptor; test: calcitonin receptor binding assay
# [4] = target: calcitonin receptor; test: cell-based or functional assay
# Chain of neuropeptide Y2 receptor (P49146 whole entry): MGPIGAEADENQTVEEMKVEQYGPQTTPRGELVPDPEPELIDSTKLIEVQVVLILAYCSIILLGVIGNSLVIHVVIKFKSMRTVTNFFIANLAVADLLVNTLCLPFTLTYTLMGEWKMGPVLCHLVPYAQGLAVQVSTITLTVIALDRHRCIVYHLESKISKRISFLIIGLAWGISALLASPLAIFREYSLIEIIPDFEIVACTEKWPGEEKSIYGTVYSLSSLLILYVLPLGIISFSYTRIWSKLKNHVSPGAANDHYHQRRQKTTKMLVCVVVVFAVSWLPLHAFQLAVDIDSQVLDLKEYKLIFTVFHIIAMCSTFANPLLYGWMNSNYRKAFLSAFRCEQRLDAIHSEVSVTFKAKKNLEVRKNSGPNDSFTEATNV
# Chain of calcitonin receptor (P30988 whole entry): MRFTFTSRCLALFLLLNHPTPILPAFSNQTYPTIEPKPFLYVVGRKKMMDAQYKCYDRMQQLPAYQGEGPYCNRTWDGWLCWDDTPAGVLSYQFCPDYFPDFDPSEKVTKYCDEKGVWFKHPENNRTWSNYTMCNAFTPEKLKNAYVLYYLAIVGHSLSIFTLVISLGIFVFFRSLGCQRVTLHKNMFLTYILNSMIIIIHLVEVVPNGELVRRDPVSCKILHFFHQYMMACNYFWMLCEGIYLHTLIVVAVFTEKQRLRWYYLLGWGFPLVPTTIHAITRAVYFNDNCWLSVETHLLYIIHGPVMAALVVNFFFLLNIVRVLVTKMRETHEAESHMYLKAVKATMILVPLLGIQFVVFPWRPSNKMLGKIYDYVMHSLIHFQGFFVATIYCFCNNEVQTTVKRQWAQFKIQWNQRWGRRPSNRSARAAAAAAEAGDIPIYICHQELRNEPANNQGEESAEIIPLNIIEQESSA
Receptor Binding [1],other results,Substance
0.2,,Human NPY (peptide)
0.5,,"[#Des-Lys1 Compound 10, amide] (Asp(#)-Pro-Pro-Pro-Pro-Pro-Pro-PYY (3-36), amide (peptide)"
0.8,,"[Asp(#)-miniPEG-Gly-PYY (3-36), amide] [#Cys-Gly-Gly-PYY (3-36), amide] (peptide)"
0.8,,"[#Cys-Gly-Gly-PYY (3-36), amide] [Asp(#)-Pro-Pro-Pro-Pro-Pro-Pro-PYY (3-36), amide] (peptide)"
0.39,,"[#Suc-(bAla)-PYY-(3-36), amide] [#NH-Des-Lys1-Rat Amylin, amide] (peptide)"
,Receptor Binding [2]: 21,Rat amylin (peptide)
1.2,,"[#NH-Cys-(bAla)-PYY-(3-36), amide] [#Suc-(bAla)-PYY-(3-36), amide] (peptide)"
,Receptor Binding [3]: 643; CT cyclase [4]: 2270,"[#NH-Cys-(bAla)-PYY-(3-36), amide] [#Suc-(bAla)-PYY-(3-36), amide] (peptide; modification not given)"
,Receptor Binding [2]: 4.4,"27(p-CH2SO3)-PheCCK8(26-33),G,K,R,15Glu,hAmy(1-17),18Arg,sCT(18-26),hAmy(32-37) (peptide)"
0.8,,"[#Cys-Gly-Gly-PYY (3-36), amide] [Asp(#)-miniPEG3-Gly-PYY (3-36), amide] (peptide)"
0.2,,[Ac-alpha-MSH-bAla-bAla-PYY-(3-36); amide] (peptide)
